Among the data in paper PMC6461089, “Characterization of the phosphotransacetylase-acetate kinase pathway for ATP production in Porphyromonas gingivalis” (Journal of Oral Microbiology, 2019) are Km, Vmax and kcat values, retold here.

Assay type in all cases: biochemical, Porphyromonas gingivalis
Substrate in series [1]: CC(=O)SCCNC(=O)CCNC(=O)[C@H](O)C(C)(C)COP(=O)(O)OP(=O)(O)OC[C@H]1O[C@@H](n2cnc3c(N)ncnc32)[C@H](O)[C@@H]1OP(=O)(O)O
Description: acetyl-CoA consumption at A233, Michaelis-Menten fit. Particulars: 100 mM Tris/phosphate pH 9.0 (phosphate co-substrate), 20 mM KCl, 37°C, acetyl-CoA 50-200 µM. The source says: acetyl-CoA consumption at A233, Michaelis-Menten fit on PgPta (PGN_1179)

Substrate in series [2]: Nc1ncnc2c1ncn2[C@@H]1O[C@H](COP(=O)(O)OP(=O)(O)O)[C@@H](O)[C@H]1O
The series is described as follows: ATP formation coupled to hexokinase / glucose-6-phosphate dehydrogenase (NADPH, A340), secondary plots. The following applies: co-substrate AcP (0.0667-0.667 mM, extrapolated), 50 mM Tris/HCl pH 8.0, 1.3 mM MgCl2 (methods also mention MnCl2), 37°C. The source says: (§1) ATP formation coupled to hexokinase / glucose-6-phosphate dehydrogenase (NADPH, A340), secondary plots on PgAck (PGN_1178)

Substrate in series [3]: CC(=O)OP(=O)(O)O
The series is described as above. Particulars: co-substrate ADP (0.267-2.67 mM, extrapolated), 50 mM Tris/HCl pH 8.0, 1.3 mM MgCl2 (methods also mention MnCl2), 37°C.
Source text: as §1

B1: PgPta (PGN_1179) (Porphyromonas gingivalis ATCC 33277) (protein)
chain: MDLIQDVIRRAQENKQRIVLPEGLEPRTLEAADRLMADKVVNIILIGNVDSVKAKVAELGLKNLDEAVIIDPNNHPKKQQYTDLLLQIRQKKGLTPEKAAELVENPLYLGCLIVKSGDADGLIAGAQNTTGDVLRPALQVIKTAPGMTSVSGTFLLFTKAKEYGKDGLLLVADCAVIPNPTADELAQIAVATARTAKAIADIEPRVAMLSFSTKGSAKHEMTDKVVEATRMAQEMAPDLLIDGEMQADAALVERVAALKAPGSNVAGKANVLVFPTLEVGNIAYKLVERLGHAEAVGPILQGMAAPVNDLSRGCSVEDIYRMVAITANQAIAAKEQ
notes: full length (domains span residues 1-336), E. coli BL21(DE3), pGEX-6P-1, GST tag cut off by PreScission protease; EC 2.3.1.8
On to B1, for which, in series [1], the Km stood at 63.8 ± 7.5 µM, the Vmax amounted to 2470 ± 105 µmol/min/mg and the kcat is 1490 ± 63 s⁻¹.

B2: PgAck (PGN_1178) (Porphyromonas gingivalis ATCC 33277) (protein)
chain: MKVLVLNCGSSSVKYKLLEMPKGDVLAQGGVEKLGLPGSFLKLTMPNGEKVVLEKDMPEHTIAVEFILSVLKDDKYGCIKSYEEIDAVGHRLVHGGEKFSNSVEITPEVIAKVEECIPLAPLHNPANLKGVVAIEKLLPGIRQVGVFDTAFFQTMPEHVYRYALPYDMCNKHGVRRYGFHGTSHRYVSARACEILGLDYDKTRIITAHIGNGASIAAIKNGKALDVSLGMTPVEGLMMGTRSGDVDPGVLTFLMEAEGLQAAGISELINKKSGVLGVSGVSSDLREIEDAIKNGNERATLAMTMYDYRIKKYVGAYAAAMGGVDVLVFTGGVGENQYTTREKVCTDMEFMGIVFDSKVNEGMRGKEMVISKPESKVTVIVVPTDEEYMIASDTMTILK
notes: full length (398 residues), E. coli BL21(DE3), pET28a, N-terminal His6 tag cut off by thrombin; homodimer (108 kDa by gel filtration); EC 2.7.2.1
As for B2, in series [2], the Km was 188 ± 22 µM, the Vmax was 145 µmol/min/mg and the turnover number (kcat) is 105 ± 1 s⁻¹. For the same protein, in series [3], the Km was 22.2 ± 0.2 µM, the maximal velocity (Vmax) was 145 µmol/min/mg and the catalytic constant (kcat) was 105 ± 1 s⁻¹.
